Data on two molecules can be found in paper PMC8782954, “Interplay between an ATP-binding cassette F protein and the ribosome from Mycobacterium tuberculosis” (Nature Communications, 2022).

Sequences and labels used below:
B1: MtbEttA (energy-dependent translational throttle A from Mycobacterium tuberculosis, Rv2477c) (natural protein)
chain: SMAEFIYTMKKVRKAHGDKVILDDVTLSFYPGAKIGVVGPNGAGKSSVLRIMAGLDKPNNGDAFLATGATVGILQQEPPLNEDKTVRGNVEEGMGDIKIKLDRFNEVAELMATDYTDELMEEMGRLQEELDHADAWDLDAQLEQAMDALRCPPADEPVTNLSGGERRRVALCKLLLSKPDLLLLDEPTNHLDAESVQWLEQHLASYPGAILAVTHDRYFLDNVAEWILELDRGRAYPYEGNYSTYLEKKAERLAVQGRKDAKLQKRLTEELAWVRSGAKARQAKSKARLQRYEEMAAEAEKTRKLDFEEIQIPVGPRLGNVVVEVDHLDKGYDGRALIKDLSFSLPRNGIVGVIGPNGVGKTTLFKTIVGLETPDSGSVKVGETVKLSYVDQARAGIDPRKTVWEVVSDGLDYIQVGQTEVPSRAYVSAFGFKGPDQQKPAGVLSGGERNRLNLALTLKQGGNLILLDEPTNDLDVETLGSLENALLNFPGCAVVISHDRWFLDRTCTHILAWEGDDDNEAKWFWFEGNFGAYEENKVERLGVDAARPHRVTHRKLTRG
notes: also called Mtb Rv2477c

Data set [1] concerns the molecule itself. The experiment in a line: SEC. A general note: In gel filtration, larger molecules generally elute earlier.
Data set [2] deals with B1. The experiment in a line: cryo-EM structure. To be noted: both partners purified.

For orientation: stoichiometry N means the number of molecules, sites or subunits per partner or assembly. On to B1, for which the “stoichiometry N” value in data set [1] stood at 2.

B2: ribosomal protein uS7 of the Mtb 30S subunit (natural protein)
chain: MPRKGPAPKRPLVNDPVYGSQLVTQLVNKVLLKGKKSLAERIVYGALEQARDKTGTDPVITLKRALDNVKPALEVRSRRVGGATYQVPVEVRPDRSTTLALRWLVGYSRQRREKTMIERLANEILDASNGLGASVKRREDTHKMAEANRAFAHYRW
For the molecule B2, in data set [2], the binding result is “binds”.
